# Changes are numbered by the printed parent chain.
# B1: S009-F3-63.5 (antibody, human IgG1, kappa, V domains shown)
# VH: QVQLQQSGAELVRPGASVTLSCKASGYTFTDYEMHWVKQTPVHGLEWIGGIDPETGDTAYNQQFKGKAILTADRSSSTAYMELRSLTSEDSAVYYCTNYASSREDYWGQGTTLTVSS
# VL: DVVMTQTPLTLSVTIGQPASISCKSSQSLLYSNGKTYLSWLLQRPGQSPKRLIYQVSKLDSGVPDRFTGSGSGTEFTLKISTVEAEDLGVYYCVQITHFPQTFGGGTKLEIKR
# notes: Human-murine chimeric antibody, human IgG1/kappa constant regions
# B2: S009-F3.38.10 (antibody, human IgG1, kappa, V domains shown)
# VH: EVQLQQSGPVLVKPGASVKMSCEASGYIFTDYYMNWVKKSHGKSLEWIGVINPKNGVISHNQKFKGKATLTVDKSSNTAYMELSSLTSEDSAVYYCANYGSRFYAMDYWGQGTSVTVSS
# VL: DVVMTQTPLSLPVSLGDQASISCRSSQSLIHSDGNTYLQWYLQKSGQSPKLLIYKVSNRFSGVPDRFSGSGSGTDFTLKISRVETEDLGVYFCSQTTHVPFTFGSGTKLEIKR
# notes: as for B1
# B3: S009-F3.80.22 (antibody, human IgG1, kappa, V domains shown)
# VH: QVQLQQSGAELVRPGASVTLSCKASGYTFTDYEIHWVKQTPVHGLEWIGAFDPEIGGSAYNQKFKDRATLTADKSSSTAYMELHSLTAEDSAVYYCTDYYGSSSGYFDVWGTGTTVTVSS
# VL: B2 VL with I30E, S32N, D33N, Q39H, Y41F, Q43H, S45P, T85A, T96S
# notes: as for B1
# B4: S009-F3.7.3 (antibody, human IgG1, kappa, V domains shown)
# VH: EVNFEESGGGLVQPGGSMKLSCVASGFTFSNYWMNWVRQSPEKGLEWVAQIRLKSDNYATHYAESVKGRFTISRDDFKSSVYLQMNNLRAEDTGIYYCTVGTGGYWGQGTTLTVSS
# VL: DIVLTQSPASLAMSLGKRATISCRASESVSIVGTNVIHWFQQKPGQPPKLLIYHASNLETGVPARFSGSGSGTDFTLTIDPVEEDDVAIYHCLQSRKIPWTFGGGTKLEIKR
# notes: Human-murine chimeric antibody: murine VH/VL on human IgG1 heavy chain constant region and human kappa constant region
# B5: S009-F3.16.1 (antibody, human IgG1, kappa, V domains shown)
# VH: B4 VH with N3K, T71S, F77S, T99S
# VL: B4 VL with M13L, L15P, V32I, N35D, G72R, H91Y
# notes: as for B1
# B6: S009-F3.74.20 (antibody, human IgG1, kappa, V domains shown)
# VH: RVQLQQSGAELVRPGASVTLSCKASGYTFTDSEMHWVKQTPVHGLEWIGAIDPEIDGTAYNQNFRDKAILTADKSSSTAYMELRSLTSEDSAVYYCTTYFGSGYGYFDVWGTGTTVTVSS
# VL: DVVMTQTPLSLSVSLGDQASISCRSSQSLVYSNGNTYLHWFLQKPGQSPKLLIYKVSNRFSGVPDRFSGSGSGTDFTLKINRVEAEDLGVYFCSQSTHIPFTFGAGTKLELKR
# notes: as for B1
# B7: F2.39.3-H5 (scFv, not shown: small tags and cut ends)
# scFv: EVQLVQSGAEVKKPGASVKVSCKASGYTFTNYWMHWVRQAPGQGLEWMGNINPSSGDSYYNERFMSRVTMTVDKSTSTAYMELSSLRSEDTAVYYCARSGGLWLAFWGQGTLVTVSSGGGGSGGGGSGGGGSDIVMTQSPDSLAVSLGERATINCKSSQTLLNSVSQNNYLAWYQQKPGQSPKLLIYFASTRESGVPDRFSGSGSGTDFTLTISSLQAEDVAVYYCQQHYRTPYTFGGGTKVEIK
# notes: also called S009-F2.39.3 humanized VH2 + VL1
# Molecular target: T1, human MSLN-R3-3 polypeptide (human)
# T1 construct: also called human MSLN-R3-3 protein; hMSLN-R3-3
# Assay: ELISA, coated antigen; antibody 0.001 nM
row,OD450 [OD450],Binder
1,0.1,B1
2,0.08,B2
3,0.15,B3
4,0.07,B4
5,0.08,B5
6,0.09,B6

# Molecular target: T2, human MSLN-hFc protein (Acro, Cat. No. MSN-H5253) (human, UniProt Q13421 296-580)
# T2 construct: bought protein; also called human MSLN full-length protein; not shown: human Fc (hFc) of the bought protein
# Assay: ELISA, coated human MSLN-hFc, antibody 0.0001 nM
# T2 sequence (Q13421 other isoform, or with tags, fused parts or gaps limits assumed): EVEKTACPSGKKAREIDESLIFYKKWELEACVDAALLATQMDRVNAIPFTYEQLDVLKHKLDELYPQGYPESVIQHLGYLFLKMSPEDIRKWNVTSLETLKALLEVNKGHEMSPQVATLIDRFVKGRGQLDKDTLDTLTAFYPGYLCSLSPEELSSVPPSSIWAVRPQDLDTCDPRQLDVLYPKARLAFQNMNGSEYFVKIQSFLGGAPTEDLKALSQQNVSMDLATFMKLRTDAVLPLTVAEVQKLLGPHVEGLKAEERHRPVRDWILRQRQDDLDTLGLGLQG
row,OD450 nm,Binder
1,0.06,B7

# Molecular target: T1, human MSLN-R3-3 polypeptide
# Assay: ELISA, coated antigen; antibody 0.01 nM
row,OD450 [OD450],Binder
1,0.4,B1
2,0.08,B2
3,0.55,B3
4,0.07,B4
5,0.07,B5
6,0.21,B6

# Molecular target: T3, human MSLN-R3-his protein (human, UniProt Q13421 487-598)
# T3 construct: also called human MSLN-R3 protein; hMSLN-R3-his; not shown: His tag
# Assay: ELISA, coated antigen; antibody 0.001 nM
# T3 sequence (Q13421 495-606): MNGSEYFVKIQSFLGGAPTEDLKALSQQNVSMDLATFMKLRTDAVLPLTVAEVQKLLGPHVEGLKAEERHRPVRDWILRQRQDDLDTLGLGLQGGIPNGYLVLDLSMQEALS
row,OD450 [OD450],Binder
1,0.1,B1
2,0.12,B2
3,0.12,B3
4,0.11,B4
5,0.15,B5
6,0.1,B6

# Molecular target: T2, human MSLN-hFc protein (Acro, Cat. No. …)
# Assay: ELISA, coated human MSLN-hFc, antibody 0.001 nM
row,OD450 nm,Binder
1,0.06,B7

# Molecular target: T4, human MSLN-R2-his protein (human, UniProt Q13421 391-486)
# T4 construct: also called human MSLN-R2 protein; hMSLN-R2-his; not shown: His tag
# Assay: ELISA, coated antigen; antibody 0.1 nM
# T4 sequence (Q13421 other isoform, or with tags, fused parts or gaps): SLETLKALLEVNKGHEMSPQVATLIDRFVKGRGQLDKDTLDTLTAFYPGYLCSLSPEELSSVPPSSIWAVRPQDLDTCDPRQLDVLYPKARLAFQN
row,OD450 [OD450],Binder
1,0.05,B1
2,0.18,B2
3,0.06,B3
4,0.07,B4
5,0.18,B5
6,0.06,B6

# Molecular target: T3, human MSLN-R3-his protein
# Assay: ELISA, coated antigen; antibody 1 nM
row,OD450 [OD450],Binder
1,1.78,B1
2,1.71,B2
3,1.91,B3
4,1.63,B4
5,1.8,B5
6,1.88,B6

# Molecular target: T1, human MSLN-R3-3 polypeptide
# Assay: ELISA, coated antigen; no antibody (blank, column 'none')
row,OD450 [OD450],Binder
1,0.07,B1
2,0.07,B2
3,0.08,B3
4,0.08,B4
5,0.08,B5
6,0.07,B6

# Molecular target: T4, human MSLN-R2-his protein
# Assay: ELISA, coated antigen; antibody 1 nM
row,OD450 [OD450],Binder
1,0.05,B1
2,0.21,B2
3,0.06,B3
4,0.07,B4
5,0.06,B5
6,0.09,B6

# Molecular target: T1, human MSLN-R3-3 polypeptide
# Assay: ELISA, coated antigen; antibody 10 nM
row,OD450 [OD450],Binder
1,1.95,B1
2,0.1,B2
3,1.91,B3
4,0.08,B4
5,0.08,B5
6,1.9,B6

# Molecular target: T4, human MSLN-R2-his protein
# Assay: ELISA, coated antigen; antibody 100 nM
row,OD450 [OD450],Binder
1,0.09,B1
2,0.13,B2
3,0.06,B3
4,0.12,B4
5,0.12,B5
6,0.09,B6

# Molecular target: T4, human MSLN-R2-his protein
# Assay: ELISA, coated antigen; antibody 10 nM
row,OD450 [OD450],Binder
1,0.07,B1
2,0.18,B2
3,0.17,B3
4,0.09,B4
5,0.08,B5
6,0.17,B6

# Molecular target: T2, human MSLN-hFc protein (Acro, Cat. No. …)
# Assay: ELISA, coated human MSLN-hFc, antibody 10 nM
row,OD450 nm,Binder
1,1.21,B7

# Molecular target: T1, human MSLN-R3-3 polypeptide
# Assay: ELISA, coated antigen; antibody 1 nM
row,OD450 [OD450],Binder
1,1.75,B1
2,0.08,B2
3,1.84,B3
4,0.07,B4
5,0.07,B5
6,1.83,B6

# Molecular target: T2, human MSLN-hFc protein (Acro, Cat. No. …)
# Assay: ELISA, coated human MSLN-hFc, antibody 0.1 nM
row,OD450 nm,Binder
1,0.11,B7

# Molecular target: T4, human MSLN-R2-his protein
# Assay: ELISA, coated antigen; antibody 0.01 nM
row,OD450 [OD450],Binder
1,0.05,B1
2,0.11,B2
3,0.07,B3
4,0.06,B4
5,0.06,B5
6,0.06,B6

# Molecular target: T1, human MSLN-R3-3 polypeptide
# Assay: ELISA, coated antigen; antibody 100 nM
row,OD450 [OD450],Binder
1,2.3,B1
2,0.32,B2
3,1.93,B3
4,0.11,B4
5,0.11,B5
6,2.07,B6

# Molecular target: T1, human MSLN-R3-3 polypeptide
# Assay: ELISA, coated antigen; antibody 0.0001 nM
row,OD450 [OD450],Binder
1,0.07,B1
2,0.07,B2
3,0.08,B3
4,0.07,B4
5,0.07,B5
6,0.07,B6

# Molecular target: T3, human MSLN-R3-his protein
# Assay: ELISA, coated antigen; antibody 0.0001 nM
row,OD450 [OD450],Binder
1,0.06,B1
2,0.08,B2
3,0.08,B3
4,0.07,B4
5,0.08,B5
6,0.07,B6

# Molecular target: T2, human MSLN-hFc protein (Acro, Cat. No. …)
# Assay: ELISA, coated human MSLN-hFc, antibody 100 nM
row,OD450 nm,Binder
1,1.87,B7

# Molecular target: T2, human MSLN-hFc protein (Acro, Cat. No. …)
# Assay: ELISA, coated human MSLN-hFc, antibody 1 nM
row,OD450 nm,Binder
1,0.39,B7

# Molecular target: T3, human MSLN-R3-his protein
# Assay: ELISA, coated antigen; antibody 10 nM
row,OD450 [OD450],Binder
1,1.98,B1
2,1.85,B2
3,1.88,B3
4,1.74,B4
5,1.91,B5
6,1.83,B6

# Molecular target: T3, human MSLN-R3-his protein
# Assay: ELISA, coated antigen; antibody 0.1 nM
row,OD450 [OD450],Binder
1,1.43,B1
2,1.47,B2
3,1.55,B3
4,1.13,B4
5,1.61,B5
6,1.07,B6

# Molecular target: T4, human MSLN-R2-his protein
# Assay: ELISA, coated antigen; no antibody (blank, column 'none')
row,OD450 [OD450],Binder
1,0.07,B1
2,0.08,B2
3,0.07,B3
4,0.08,B4
5,0.08,B5
6,0.07,B6

# Molecular target: T3, human MSLN-R3-his protein
# Assay: ELISA, coated antigen; antibody 100 nM
row,OD450 [OD450],Binder
1,2.36,B1
2,2.05,B2
3,2.02,B3
4,2.16,B4
5,1.92,B5
6,2.06,B6

# Molecular target: T4, human MSLN-R2-his protein
# Assay: ELISA, coated antigen; antibody 0.001 nM
row,OD450 [OD450],Binder
1,0.05,B1
2,0.06,B2
3,0.06,B3
4,0.07,B4
5,0.06,B5
6,0.06,B6

# Molecular target: T3, human MSLN-R3-his protein
# Assay: ELISA, coated antigen; no antibody (blank, column 'none')
row,OD450 [OD450],Binder
1,0.06,B1
2,0.09,B2
3,0.08,B3
4,0.08,B4
5,0.09,B5
6,0.09,B6

# Molecular target: T1, human MSLN-R3-3 polypeptide
# Assay: ELISA, coated antigen; antibody 0.1 nM
row,OD450 [OD450],Binder
1,1.46,B1
2,0.08,B2
3,1.47,B3
4,0.07,B4
5,0.08,B5
6,0.96,B6

# Molecular target: T3, human MSLN-R3-his protein
# Assay: ELISA, coated antigen; antibody 0.01 nM
row,OD450 [OD450],Binder
1,0.41,B1
2,0.41,B2
3,0.51,B3
4,0.43,B4
5,0.65,B5
6,0.29,B6

# Molecular target: T2, human MSLN-hFc protein (Acro, Cat. No. …)
# Assay: ELISA, coated human MSLN-hFc, antibody 0.01 nM
row,OD450 nm,Binder
1,0.06,B7

# Molecular target: T4, human MSLN-R2-his protein
# Assay: ELISA, coated antigen; antibody 0.0001 nM
row,OD450 [OD450],Binder
1,0.06,B1
2,0.07,B2
3,0.07,B3
4,0.07,B4
5,0.06,B5
6,0.06,B6

# — US20250250357A1 (NANJING ZAIMING PHARMACEUTICAL, published 2025)
